Tested on: Bacillus subtilis
Test: cleaved RNA product abundance (RNA/gDNA barcode ratio) relative to median wild-type variant (ratio to wild type); higher = more accumulation of the downstream cleavage product
Conditions: experiment (reporter, strain, medium): exp 8a: truncated aprE reporter, strain BJT201 with 2% xylose (RNase J1 expressed); cleavage site: glnRA (positions -5 to +31 mutated)
Summary of the method: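 In LB at 37°C, B. subtilis cultures went from OD600 0.0003 to 0.3. Their chromosomes held barcoded reporter mRNAs, truncated aprE or tetM, with RNase Y cleavage-site windows mutagenized via oligos at a 9% error rate. Cleaved RNA, chosen by gel, was reverse transcribed and barcode-sequenced alongside genomic DNA barcodes with UMI collapsing, giving a per-construct RNA:gDNA ratio scaled to the median construct with the unmutated site. This scaled ratio is termed cleaved product abundance.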

Row | Sequence | cleaved RNA product abundance
1 | CGACATGTCCCGCTTCTTTCATTAATCCTTTAGCAACTGTATTGCTATATACATTTACCTTTTAAGAGGAGGAAT | 0.83
2 | CGACATGTCCCGCTTCTTTCATTAATCCTTTAGCAACTGTCTTGCTATATACATTTACCTTTTAAGAGGAGGAAT | 0.661
3 | CGACATGTCCCGCTTCTTTCATTAATCCTTTAGCAACTGTTATGCTATATACATTTACCTTTTAAGAGGAGGAAT | 0.471
4 | CGACATGTCCCGCTTCTTTCATTAATCCTTTAGCAACTGTTTCGCTATATACATTTACCTTTTAAGAGGAGGAAT | 0.282
5 | CGACATGTCCCGCTTCTTTCATTAATCCTTTAGCAACTGTTTTACTATATACATTTACCTTTTAAGAGGAGGAAT | 0.513
6 | CGACATGTCCCGCTTCTTTCATTAATCCTTTAGCAACTGTTTTCCTATATACATTTACCTTTTAAGAGGAGGAAT | 0.283
7 | CGACATGTCCCGCTTCTTTCATTAATCCTTTAGCAACTGTTTTGATATATACATTTACCTTTTAAGAGGAGGAAT | 0.374
8 | CGACATGTCCCGCTTCTTTCATTAATCCTTTAGCAACTGTTTTGCAATATACATTTACCTTTTAAGAGGAGGAAT | 0.453
9 | CGACATGTCCCGCTTCTTTCATTAATCCTTTAGCAACTGTTTTGCCATATACATTTACCTTTTAAGAGGAGGAAT | 0.2
10 | CGACATGTCCCGCTTCTTTCATTAATCCTTTAGCAACTGTTTTGCGATATACATTTACCTTTTAAGAGGAGGAAT | 0.366
11 | CGACATGTCCCGCTTCTTTCATTAATCCTTTAGCAACTGTTTTGCGATATACATTTACTTTTTAAGAGGAGGAAT | 0.438
12 | CGACATGTCCCGCTTCTTTCATTAATCCTTTAGCAACTGTTTTGCTATAAACATTTACCTTTTAAGAGGAGGAAT | 0.176
13 | CGACATGTCCCGCTTCTTTCATTAATCCTTTAGCAACTGTTTTGCTATACACATTTACCTTTTAAGAGGAGGAAT | 0.451
14 | CGACATGTCCCGCTTCTTTCATTAATCCTTTAGCAACTGTTTTGCTATATACAATTACCTTTTAAGAGGAGGAAT | 0.889
15 | CGACATGTCCCGCTTCTTTCATTAATCCTTTAGCAACTGTTTTGCTATATACAGTTACCTTTTAAGAGGAGGAAT | 0.604
16 | CGACATGTCCCGCTTCTTTCATTAATCCTTTAGCAACTGTTTTGCTATATACATATACCTTTTAAGAGGAGGAAT | 0.842
17 | CGACATGTCCCGCTTCTTTCATTAATCCTTTAGCAACTGTTTTGCTATATACATTAACCTTTTAAGAGGAGGAAT | 0.846
18 | CGACATGTCCCGCTTCTTTCATTAATCCTTTAGCAACTGTTTTGCTATATACATTGACCTTTTAAGAGGAGGAAT | 0.333
19 | CGACATGTCCCGCTTCTTTCATTAATCCTTTAGCAACTGTTTTGCTATATACATTTACATTTTAAGAGGAGGAAT | 0.783
20 | CGACATGTCCCGCTTCTTTCATTAATCCTTTAGCAACTGTTTTGCTATATACATTTACCATTTAAGAGGAGGAAT | 0.837
21 | CGACATGTCCCGCTTCTTTCATTAATCCTTTAGCAACTGTTTTGCTATATACATTTACCTTTTAAGAGGAGGAAT | 0.612
22 | CGACATGTCCCGCTTCTTTCATTAATCCTTTAGCAACTGTTTTGCTATATACATTTATCTTTTAAGAGGAGGAAT | 0.826

Row | Sequence | cleaved RNA product abundance
23 | CGACATGTCCCGCTTCTTTCATTAATCCTTTAGCAACTGTTTTGCTATATACATTTCCCTTTTAAGAGGAGGAAT | 0.343
24 | CGACATGTCCCGCTTCTTTCATTAATCCTTTAGCAACTGTTTTGCTATATATATTTACCTTTTAAGAGGAGGAAT | 0.909
25 | CGACATGTCCCGCTTCTTTCATTAATCCTTTAGCAACTGTTTTGCTTTATACATTTACCTTTTAAGAGGAGGAAT | 0.174
26 | CGACATGTCCCGCTTCTTTCATTAATCCTTTAGCAACTGTTTTGTTATATACATTTACCTTTTAAGAGGAGGAAT | 0.553
27 | CGACATGTCCCGCTTCTTTCATTAATCCTTTAGCAACTGTTTTTCTATATACATTTACCTTTTAAGAGGAGGAAT | 0.478
28 | CGACATGTCCCGCTTCTTTCATTAATCCTTTAGCAAGTGTTTTGCTATATACATTTACCTTTTAAGAGGAGGAAT | 0.82
29 | CGACATGTCCCGCTTCTTTCATTAATCCTTTAGCATCTCTTTTGCTATATACATTTACCTTTTAAGAGGAGGAAT | 0.512
30 | CGACATGTCCCGCTTCTTTCATTAATCCTTTAGCCACTGTTTTGCTATATACATTTACCTTTTAAGAGGAGGAAT | 0.253
31 | CGACATGTCCCGCTTCTTTCATTAATCCTTTAGTAACTGTTTTGCTATATACATTTACCTTTTAAGAGGAGGAAT | 0.378
32 | CGACATGTCCCGCTTCTTTCATTAATCCTTTCGCAACTGTTTTGCTATATACATTTACCTTTTAAGAGGAGGAAT | 0.299
33 | CGACATGTCCCGCTTCTTTCATTAATCGATTAGCAACTGTTTTGCTATATACATTTACCTTTTAAGAGGAGGAAT | 0.79
34 | CGACATGTCCCGCTTCTTTCATTAATCGCTTAGCAACTGTTTTGCTATATACATTTACCTTTTAAGAGGAGGAAT | 0.335
35 | CGACATGTCCCGCTTCTTTCATTAATCGGTTAACAAATGTTGTGCTATAGACATTTACCTTTTAAGAGGAGGAAT | 0.209
36 | CGACATGTCCCGCTTCTTTCATTAATCGGTTAGAAACTGTTTTGCTATATACATTTACCTTTTAAGAGGAGGAAT | 0.222
37 | CGACATGTCCCGCTTCTTTCATTAATCGGTTAGCAACAGTTTTGCTATATACATTTACCTTTTAAGAGGAGGAAT | 0.927
38 | CGACATGTCCCGCTTCTTTCATTAATCGGTTAGCAACTGTTTTGATATATACATTTACCTTTTAAGAGGAGGAAT | 0.356
39 | CGACATGTCCCGCTTCTTTCATTAATCGGTTAGCAACTGTTTTGCAATATACATTTACCTTTTAAGAGGAGGAAT | 0.349
40 | CGACATGTCCCGCTTCTTTCATTAATCGGTTAGCAACTGTTTTGCTATAAACATTTACCTTTTAAGAGGAGGAAT | 0.876
41 | CGACATGTCCCGCTTCTTTCATTAATCGGTTAGCAACTGTTTTGCTATATACATTAACCTTTTAAGAGGAGGAAT | 1.51
42 | CGACATGTCCCGCTTCTTTCATTAATCGGTTAGCAACTGTTTTGCTATATACATTTACCTTTTAAGAGGAGGAAT | 0.613
43 | CGACATGTCCCGCTTCTTTCATTAATCGGTTAGCAACTGTTTTGCTATATATATTTACCTTTTAAGAGGAGGAAT | 0.947
44 | CGACATGTCCCGCTTCTTTCATTAATCGGTTAGCAACTGTTTTGCTATCTACATTTACCTTTTAAGAGGAGGAAT | 0.132

Row | Sequence | cleaved RNA product abundance
45 | CGACATGTCCCGCTTCTTTCATTAATCGGTTATCAACTGTTTTGCTATATACATTTACCTTTTAAGAGGAGGAAT | 0.206
46 | CGACATGTCCCGCTTCTTTCATTAATCTATTAGCAACTGTTTTGCTATTTACATTTACCTTTTAAGAGGAGGAAT | 0.311
47 | CGACATGTCCCGCTTCTTTCATTAATCTGATAGCAACTGTTTTGCTATATACATTTACCTTTTAAGAGGAGGAAT | 0.81
48 | CGACATGTCCCGCTTCTTTCATTAATCTGTAAGCAACTGTTTTGCTATATACATTTACCTTTTAAGAGGAGGAAT | 0.539
49 | CGACATGTCCCGCTTCTTTCATTAATCTGTGAGCAACTGTTTTGCTATATACATTTACCTTTTAAGAGGAGGAAT | 0.777
50 | CGACATGTCCCGCTTCTTTCATTAATCTGTTAACAACTGTTTTGCTATATACATTTACCTTTTAAGAGGAGGAAT | 0.238
51 | CGACATGTCCCGCTTCTTTCATTAATCTGTTAGAAACTGTTTTGCTATATACATTTACCTTTTAAGAGGAGGAAT | 0.269
52 | CGACATGTCCCGCTTCTTTCATTAATCTGTTAGCAACAGTTTTGCTATATACATTTACCTTTTAAGAGGAGGAAT | 0.686
53 | CGACATGTCCCGCTTCTTTCATTAATCTGTTAGCAACCGTTTTGCTATATACATTTACCTTTTAAGAGGAGGAAT | 0.436
54 | CGACATGTCCCGCTTCTTTCATTAATCTGTTAGCAACTATTTTGCTATATACATTTACCTTTTAAGAGGAGGAAT | 1.77
55 | CGACATGTCCCGCTTCTTTCATTAATCTGTTAGCAACTGTTATCCTATATACATTTACCTTTTAAGAGGAGGAAT | 0.577
56 | CGACATGTCCCGCTTCTTTCATTAATCTGTTAGCAACTGTTATGCTATATACATTTACCTTTTAAGAGGAGGAAT | 0.799
57 | CGACATGTCCCGCTTCTTTCATTAATCTGTTAGCAACTGTTCTGCTATATACATTTACCTTTTAAGAGGAGGAAT | 0.368
58 | CGACATGTCCCGCTTCTTTCATTAATCTGTTAGCAACTGTTTAGCTATATACATTTACCTTTTAAGAGGAGGAAT | 0.727
59 | CGACATGTCCCGCTTCTTTCATTAATCTGTTAGCAACTGTTTGGCTATATACATTTACCTTTTAAGAGGAGGAAT | 0.476
60 | CGACATGTCCCGCTTCTTTCATTAATCTGTTAGCAACTGTTTTACTATATACATTTACCTTTTAAGAGGAGGAAT | 0.541
61 | CGACATGTCCCGCTTCTTTCATTAATCTGTTAGCAACTGTTTTGATATATACATTTACCTTTTAAGAGGAGGAAT | 0.562
62 | CGACATGTCCCGCTTCTTTCATTAATCTGTTAGCAACTGTTTTGCCATATACATTTACCTTTTAAGAGGAGGAAT | 0.108
63 | CGACATGTCCCGCTTCTTTCATTAATCTGTTAGCAACTGTTTTGCTAAATACATTTACCTTTTAAGAGGAGGAAT | 1.01
64 | CGACATGTCCCGCTTCTTTCATTAATCTGTTAGCAACTGTTTTGCTATAAACATTTACCTTTTAAGAGGAGGAAT | 0.917
65 | CGACATGTCCCGCTTCTTTCATTAATCTGTTAGCAACTGTTTTGCTATAGACATTTACCTTTTAAGAGGAGGAAT | 0.968
66 | CGACATGTCCCGCTTCTTTCATTAATCTGTTAGCAACTGTTTTGCTATATAAATTTACCTTTTAAGAGGAGGAAT | 0.994

— the supplement of paper PMC11780869
